# Experimental data as given in article PMC12201654, “Circovirus Rep evades immune restriction by disrupting cGAS oligomerization and phase separation” (PLOS Pathogens, 2025).
# T1: pcGAS full length (pig (porcine), UniProt I3LM39 1-495)
# T1 sequence: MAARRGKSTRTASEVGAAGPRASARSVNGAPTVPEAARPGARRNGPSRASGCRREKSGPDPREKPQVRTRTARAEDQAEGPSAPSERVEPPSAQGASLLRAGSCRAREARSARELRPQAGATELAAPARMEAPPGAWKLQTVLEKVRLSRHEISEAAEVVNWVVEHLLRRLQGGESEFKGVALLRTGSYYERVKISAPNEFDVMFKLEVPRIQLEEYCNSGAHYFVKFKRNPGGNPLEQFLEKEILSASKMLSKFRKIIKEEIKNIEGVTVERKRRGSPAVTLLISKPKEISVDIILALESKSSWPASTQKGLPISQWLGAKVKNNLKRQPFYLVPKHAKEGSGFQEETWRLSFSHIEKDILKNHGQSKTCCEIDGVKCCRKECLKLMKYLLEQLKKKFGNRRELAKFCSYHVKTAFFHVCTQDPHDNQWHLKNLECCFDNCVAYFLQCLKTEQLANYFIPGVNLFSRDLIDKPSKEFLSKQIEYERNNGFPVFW
# T2: PCV2a Rep (Porcine circovirus 2a, UniProt Q77Q74 1-314)
# T2 sequence: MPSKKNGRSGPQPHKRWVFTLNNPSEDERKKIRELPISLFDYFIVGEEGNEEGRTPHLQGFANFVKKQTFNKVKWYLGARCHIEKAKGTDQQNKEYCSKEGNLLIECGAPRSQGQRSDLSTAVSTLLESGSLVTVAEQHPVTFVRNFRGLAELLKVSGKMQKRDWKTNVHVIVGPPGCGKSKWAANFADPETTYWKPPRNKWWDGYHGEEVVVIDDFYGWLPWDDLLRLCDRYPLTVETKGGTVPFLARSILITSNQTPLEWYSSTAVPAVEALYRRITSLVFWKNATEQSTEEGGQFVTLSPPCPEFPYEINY
# T3: SUMO-PCV4 Rep-Myc (Porcine circovirus 4, UniProt A0A7M4CFI7 1-296)
# T3 sequence: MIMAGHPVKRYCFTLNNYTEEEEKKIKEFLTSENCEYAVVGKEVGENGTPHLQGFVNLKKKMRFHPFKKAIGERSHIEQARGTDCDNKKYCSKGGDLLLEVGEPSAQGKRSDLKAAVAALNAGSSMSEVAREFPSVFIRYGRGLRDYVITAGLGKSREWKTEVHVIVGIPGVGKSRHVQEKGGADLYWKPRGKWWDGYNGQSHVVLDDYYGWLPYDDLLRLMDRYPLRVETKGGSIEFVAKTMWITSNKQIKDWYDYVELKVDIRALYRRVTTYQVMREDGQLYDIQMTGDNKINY
# What was measured:
# [1] = molecular target: the molecule itself; test: cross-linking; recombinant pcGAS (5 ug), bound to ISD45 dsDNA, alone or with recombinant Rep proteins (5, 10, 15 ug) in cGAMP synthesis buffer (20 mM HEPES pH 7.5, 5 mM MgCl2, 2 mM ATP, 2 mM GTP), 25°C 15 min, then DSS 0.5 mM for 10 min; non-reducing loading buffer, immunoblot
# pcGAS full length = molecular target: T1, pcGAS full length; test: MST; Pull-down: IP lysis buffer 4 h at 4 C (lysates) or NP-40 buffer 6 h at 4 C (recombinant), biotin-HSV60 40 ug/mL; MST buffer not given; phase separation 50-300 mM NaCl; conditions: protein: recombinant; label: Cy5; blunt
# PCV2a Rep = molecular target: T2, PCV2a Rep; test: as above; conditions: protein: recombinant; tags: C-terminal Myc; His6-SUMO removed per Methods; label: Cy5; blunt
# SUMO-PCV3 Rep-Myc = SUMO-PCV3 Rep-Myc (Porcine circovirus 3, UniProt A0ACM8RHE8 1-296); test: pull-down; Pull-down: IP lysis buffer 4 h at 4 C (lysates) or NP-40 buffer 6 h at 4 C (recombinant), biotin-HSV60 40 ug/mL; MST buffer not given; phase separation 50-300 mM NaCl; conditions: protein: recombinant; tags: His6-SUMO, C-terminal Myc; label: 5'-biotin; blunt
# SUMO-PCV4 Rep-Myc = molecular target: T3, SUMO-PCV4 Rep-Myc; test: as above; conditions: protein: recombinant; tags: His6-SUMO, C-terminal Myc; label: 5'-biotin; blunt
binder,measurement,setting,value
"porcine cGAS (pcGAS), recombinant full-length protein (natural protein, cyclic GMP-AMP synthase (cGAS), porcine, full length; identifier not given; also called porcine cyclic GMP-AMP synthase; pcGAS full length; source: recombinant protein, stored in our laboratory) MAARRGKSTRTASEVGAAGPRASARSVNGAPTVPEAARPGARRNGPSRASGCRREKSGPDPREKPQVRTRTARAEDQAEGPSAPSERVEPPSAQGASLLRAGSCRAREARSARELRPQAGATELAAPARMEAPPGAWKLQTVLEKVRLSRHEISEAAEVVNWVVEHLLRRLQGGESEFKGVALLRTGSYYERVKISAPNEFDVMFKLEVPRIQLEEYCNSGAHYFVKFKRNPGGNPLEQFLEKEILSASKMLSKFRKIIKEEIKNIEGVTVERKRRGSPAVTLLISKPKEISVDIILALESKSSWPASTQKGLPISQWLGAKVKNNLKRQPFYLVPKHAKEGSGFQEETWRLSFSHIEKDILKNHGQSKTCCEIDGVKCCRKECLKLMKYLLEQLKKKFGNRRELAKFCSYHVKTAFFHVCTQDPHDNQWHLKNLECCFDNCVAYFLQCLKTEQLANYFIPGVNLFSRDLIDKPSKEFLSKQIEYERNNGFPVFW",binding result,[1],binds
Cy5-HSV60 (dsDNA) DNA 1: TAAGACACGATGCGATAAAATCTGTTTGTAAAATTTATTAAGGGTACAAATTGCCCTAGC DNA 2: GCTAGGGCAATTTGTACCCTTAATAAATTTTACAAACAGATTTTATCGCATCGTGTCTTA,Kd,pcGAS full length,0.68 µM
same,Kd,PCV2a Rep,11.1 µM
biotin-HSV60 (dsDNA) DNA 1: TAAGACACGATGCGATAAAATCTGTTTGTAAAATTTATTAAGGGTACAAATTGCCCTAGC DNA 2: GCTAGGGCAATTTGTACCCTTAATAAATTTTACAAACAGATTTTATCGCATCGTGTCTTA,binding result,SUMO-PCV3 Rep-Myc,binds
same,binding result,SUMO-PCV4 Rep-Myc,binds
